In experiment [1] the target is T1, MICA on human tumor cells (A-375, A549, HCT-15, MDA-MB-231) (human, UniProt Q29983 24-383).
T1 construct: whole, on cells
T1 sequence (looked up): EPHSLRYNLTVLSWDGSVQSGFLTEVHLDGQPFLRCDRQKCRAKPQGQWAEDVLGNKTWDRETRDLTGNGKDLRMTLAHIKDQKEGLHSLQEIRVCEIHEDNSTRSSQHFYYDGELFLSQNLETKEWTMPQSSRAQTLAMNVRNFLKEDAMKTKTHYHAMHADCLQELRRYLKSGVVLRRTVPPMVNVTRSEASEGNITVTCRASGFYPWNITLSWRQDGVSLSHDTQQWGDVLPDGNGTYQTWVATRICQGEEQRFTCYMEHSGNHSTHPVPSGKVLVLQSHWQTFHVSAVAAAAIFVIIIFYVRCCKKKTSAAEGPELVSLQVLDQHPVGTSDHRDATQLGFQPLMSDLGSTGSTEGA
Put plainly: flow cytometry on MDA-MB-231 cells, Alexa-647 goat anti-human secondary, % binding ratio. Here is the method: (2) Tumor cells were diluted to a density of 2×10⁶/mL with PBS and added into a 1.5 ml EP tube in a volume of 100 l/tube. 10 l/tube of goat serum was added into the EP tube; and blocking was conducted at 4° C. for 30 min. […] The tube was incubated at 4° C. for 30 min. 1 mL of PBS was added into the EP tube, and centrifugation was conducted 4° C. at a rate of 3,500 rpm for 5 min. The supernatant was removed. Then, the EP tube was washed once with the PBS, and the supernatant was removed after centrifugation. The cells were resuspended with PBS in a volume of 100 l/tube. An Alexa-647 labeled goat anti-human secondary antibody (purchased from Jackson lab) was added into the tube in a volume of 1 l/tube, and the tube was incubated in the dark at 4° C. for 30 min. The tube was washed twice with PBS, and the supernatant was removed after centrifugation. The cells were resuspended with the PBS in a volume of 200 l/tube, and detection was conducted by a flow cytometer. The results are as shown in FIG. 17A and FIG. 17B, FIG. 18A and FIG. 18B, FIG. 19A and FIG. 19B, and FIG. 20A and FIG. 20B.
On the technique in general: Flow cytometry measures light scatter and fluorescence of single cells or particles in a stream.

Experiment [2] deals with T1, MICA on human tumor cells (A-375, A549, …). Put plainly: flow cytometry on HCT-15 cells, Alexa-647 goat anti-human secondary, average fluorescence intensity. Here is the method: (1) Tumor cells were diluted to a density of 2×10⁶/mL with PBS and then added into a 1.5 ml EP tube in a volume of 100 l/tube. 10 l/tube of goat serum was added into the EP tube; and blocking was conducted at 4° C. for 30 min. Antibody h5A1 (having a heavy chain sequence as set forth in SEQ ID NO: 11 and a light chain sequence as set forth in SEQ ID NO: 12), antibody h5A1002 (having a heavy chain sequence as set forth in SEQ ID NO: 13 and a light chain sequence as set forth in SEQ ID NO: 14), and control IgG1 (purchased from Biointron) were gradient-diluted (at a highest working concentration of 50 μg/ml, 10 gradients, diluted by 3 times for each gradient) and added. The tube was incubated at 4° C. for 30 min. 1 mL of PBS was added into the EP tube, and centrifugation was conducted 4° C. at a rate of 3,500 rpm for 5 min. The supernatant was removed. The EP tube was washed once with the PBS. The supernatant was removed after centrifugation. The cells were resuspended with PBS in a volume of 100 l/tube. An Alexa-647 labeled goat anti-human secondary antibody (purchased from Jackson lab) was added into the tube in a volume of 1 l/tube; and the plate was incubated in the dark at 4° C. for 30 min. The tube was washed twice with PBS, and the supernatant was removed after centrifugation. […]

Experiment [3] deals with T2, MICB001α3-Fc.
T2 construct: also called MICB*001-Fc; domain α3 of MICB-001 Fc fusion protein
T2 sequence (chain, as listed by the source limits assumed): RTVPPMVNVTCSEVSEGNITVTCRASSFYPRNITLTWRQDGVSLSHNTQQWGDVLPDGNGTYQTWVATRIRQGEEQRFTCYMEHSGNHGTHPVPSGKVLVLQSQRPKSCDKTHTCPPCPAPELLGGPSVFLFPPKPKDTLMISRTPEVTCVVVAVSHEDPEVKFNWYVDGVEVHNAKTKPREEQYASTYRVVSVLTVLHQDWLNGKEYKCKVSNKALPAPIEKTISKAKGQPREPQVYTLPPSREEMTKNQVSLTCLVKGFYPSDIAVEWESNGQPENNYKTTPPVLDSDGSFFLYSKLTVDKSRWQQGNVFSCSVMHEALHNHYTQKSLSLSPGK
Put plainly: ELISA on coated MICB*001 α3-Fc (1 µg/ml), HRP anti-human Fab secondary, OD450. Background: In an ELISA, binding on a coated surface is turned into a signal by an enzyme label.

The target in experiment [4] is T3, MICA005α3-Fc (human).
T3 construct: also called MICA*005-Fc; domain α3 of MICA-005 Fc fusion protein
T3 sequence (chain, as listed by the source limits assumed): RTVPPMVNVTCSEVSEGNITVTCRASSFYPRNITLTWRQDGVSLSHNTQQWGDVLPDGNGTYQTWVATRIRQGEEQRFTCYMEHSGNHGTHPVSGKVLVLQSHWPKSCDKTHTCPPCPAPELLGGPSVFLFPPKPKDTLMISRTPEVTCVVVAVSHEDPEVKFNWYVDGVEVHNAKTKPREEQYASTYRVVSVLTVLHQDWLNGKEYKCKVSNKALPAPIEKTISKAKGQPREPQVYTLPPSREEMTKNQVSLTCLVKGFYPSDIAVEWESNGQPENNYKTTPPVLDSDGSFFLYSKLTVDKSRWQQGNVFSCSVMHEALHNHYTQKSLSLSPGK
Put plainly: ELISA on coated MICA*005 α3-Fc (1 µg/ml), HRP anti-human Fab secondary, OD450.

B1: affinity maturation antibody h5A1002 (antibody, V domains shown)
VH: QVQLQESGPGLVKPSETLSLTCTVSGFSLTTYGGHWIRQPPGKGLEWIGMIWTDGWTDYNAAFISRVTISVDTSKNQFSLKLSSVTAADTAVYYCARKGHGYYYAMDYWGQGTLVTVSS
VL: EIVLTQSPGTLSLSPGERATLSCTASSSVSSSYLHWYQQKPGQAPRLLIYSTSNLISGIPDRFSGSGSGTDFTLTISRLEPEDFAVYYCHQYHRSPFTFGQGTKLEIKR
notes: Human IgG1, kappa; also called h5A1002-hIgG1
Take B1: the EC50 (read off the curve) (as a rule, the concentration at which the effect is half-maximal) in experiment [1] was approximately 0.3 µg/mL; in experiment [2], approximately 1 µg/mL; in experiment [3], approximately 0.03 µg/mL; in experiment [4], approximately 0.04 µg/mL.
